Test results: patent publication US20250236878A1 (priority 2019, published 2025)
Where two headings read alike, the source gives them in different places.

Assays:
[1] = system: Pseudomonas syringae pv. actinidiae (PSA-V); format: in vivo; conditions: at 6, 16 and 23 DAI; P<0.1
[2] = system: corn hybrids Beck's 6127 BHMF and 6127 DVMF; conditions: in vivo
[3] = system: HLB-infected citrus trees; experiment: Citrus trials of Examples 20-24: fruit yield, size, count and drop, average over orange and grapefruit trials; format: in vivo, Citrus sinesis; Citrus paradisi; conditions: trunk injection (Table 64)
Experimental: All fruit with a diameter greater than or equal to 1.6 inches (40 mm) were hand-picked and collected for each tree. The total “Fruit Weight” (in kilograms) per individual tree was measured and recorded. Trees with total fruit weights less than or greater than 2 standard deviations (2STDEV) from the trial mean were considered to be outliers and removed from the dataset. Fruit size was assessed as the “Average Weight per Fruit” in grams (weight of 20 random fruit per tree, divided by 20) and “Average Fruit Diameter” in millimeters, as described in Example 1. The “Average Fruit Count” per tree was assessed as the total “Fruit Weight” divided by “Average Weight per Fruit”. “Fruit Drop” was assessed as for Example 1. Fruit quality was assessed as for Example 2, with the exception that one set of fruit consisted for 15 total fruit, each corresponding to a sampling of 3 fruit from 5 trees of the same experimental treatment block. Each set of 15 fruit were weighed (gram; g) and then juiced together. Average yield, % fruit drop, fruit size, and juice quality for each of the tested compositions are described in Examples 20-24.

[4] = system: Citrus trees infected with CLas; experiment: Recovery composition trunk injection: 'Valencia' orange fruit yield (Examples 3, 19); format: in vivo, Citrus sinesis
[5] = system: Citrus trees infected with Candidatus Liberibacter asiaticus; format: in vivo, Citrus x paradisi; conditions: […], trunk injection
[6] = system: Citrus trees infected with CLas; design: species or system Citrus sinesis; conditions: in vivo
[7] = system: Citrus trees infected with CLas; format: in vivo, Citrus x paradisi; Citrus sinesis; conditions: average of 'Ruby Red' and 'Valencia'
Source text: Treatments as previously described in Example 3; β-1,3-Endoglucanase from barley SEQ ID NO: 731 (Treatment 1) and Bt.4Q7Flg22 from Bacillus thurigiensis SEQ ID NO: 226 (Treatment 5) increased fruit yield (kg/tree) as described in Table 56. Fruit quality, and juice quality of ‘Valencia’ oranges are described in Table 57.
For direct comparison of the treatment results between grapefruit (‘Ruby Red’) and orange (‘Valencia’) are referenced in Table 56 above.

[8] = 'Valencia' orange, trunk injection

B1: Serine Protease 2: serine protease 2 cloned from Bacillus subtilis, four substitutions relative to SEQ ID NO: 722 (protein, listed as Bacillus subtilis)
chain: SSKTSADLEKAEVFGDIDMTTSKKTTVIVELKEKSLAEAKEAGESQSKSKLKTARTQAKNKAIKAVKNGKVNREYEQVFSGFSMKLPANEIPKLLAVKDVKAVYPNVTYKTDNMKDKDVTISEDAVSPQMDDSAPYIGANDAWDLGYTGKGIKVAIIDTGVEYNHPDLKKNFGQYKGYDFVDNDYDPKETPTGDPRGEATDHGTHVAGTVAANGTIKGVAPDATLLAYRVLGPGGSGTTENVIAGVERAVQDGADVMNLSLGNSLNNPDWATSTALDWAMSEGVVAVTSNGNSGPNGWTVGSPGTSREAISVGATQLPLDEYAVTFGSYSSAKVMGYNKEDDVKALNNKEVELVEAGIGEAKDFEGKDLTGKVAVVKRGSIAFVDKADNAKKAGAIGMVVYNNLSGEIEANVPGMSVPTIKLSLEDGEKLVSALKAGETKTTFKLTVSKALGEQVADFSSRGPVMDTWMIKPDISAPGVNIVSTIPTHDPDHPYGYGSKQGTSMASPHIAGAVAVIKQAKPKWSVEQIKAAIMNTAVTLKDSDGEVYPHNAQGAGSARIMNAIKADSLVSPGSCSYGTFLKENGNETKNETFTIENQSSIRKSYTLEYSFNGSGISTSGTSRVVIPAHQTGKATARVKVNTKKTKAGTYEGTVIVREGGKTVAKVPTLLIVKEPDYPRVTSVSVSEGSVQGTYQIETYLPAGAEELAFLVYDSNLDFAGQAGIYKNQDKGYQYFDWDGTINGGTKLPAGEYYLLAYAANKGKSSQVLTEEPFTVE
[1]
  PSA-V leaf spot symptoms in comparison to the untreated control: significantly reduced

B2: ACC deaminase: 1-aminocyclopropane-1-carboxylate deaminase polypeptide with two substitutions relative to wild type (protein, listed as Bacillus thuringiensis)
chain: MNLAKFPRKKYTESYTPIEKLNNFSEALGGPTIYFKRDDLLGLTAGGNKTRKLEFLVADAQEKGADTLITAGGIQSNHCRLTLAAAVKEKMKCILVLEEGLEPEEKRDFNGNYFLYHLLGAENVIVVPNGADLMEEMNKVAKEVSEKGSTPYVIPVGGSNPTGAMGYVACAQEIMAQSFEQGIDFSSVVCVSGSGGMHAGLITGFSGTQSHIPVIGINVSRGKAEQEEKVAKLVDETSAHVGIPNFISRDAVTCFDEYVGPGYALPTPEMVEAVQLLAKTEGILLDPVYEGKAVAGLIDLIRKGKFNKEDNILFVHLGGSPALYANTSLFA
[2]
  average yield benefit over the control corn plants: +7.16 flu/Ac

B3: Amylase from Bacillus subtilis 168: starch-degrading Amylase, trunk-injected at 92 U per tree (protein, UniProt P00691 42-659, looked up)
Alpha-amylase: LTAPSIKSGTILHAWNWSFNTLKHNMKDIHDAGYTAIQTSPINQVKEGNQGDKSMSNWYWLYQPTSYQIGNRYLGTEQEFKEMCAAAEEYGIKVIVDAVINHTTSDYAAISNEVKSIPNWTHGNTQIKNWSDRWDVTQNSLLGLYDWNTQNTQVQSYLKRFLDRALNDGADGFRFDAAKHIELPDDGSYGSQFWPNITNTSAEFQYGEILQDSASRDAAYANYMDVTASNYGHSIRSALKNRNLGVSNISHYASDVSADKLVTWVESHDTYANDDEESTWMSDDDIRLGWAVIASRSGSTPLFFSRPEGGGNGVRFPGKSQIGDRGSALFEDQAITAVNRFHNVMAGQPEELSNPNGNNQIFMNQRGSHGVVLANAGSSSVSINTATKLPDGRYDNKAGAGSFQVNDGKLTGTINARSVAVLYPDDIAKAPHVFLENYKTGVTHSFNDQLTITLRADANTTKAVYQINNGPETAFKDGDQFTIGKGDPFGKTYTIMLKGTNSDGVTRTEKYSFVKRDPASAKTIGYQNPNHWSQVNAYIYKHDGSRVIELTGSWPGKPMTKNADGIYTLTLPADTDTTNAKVIFNNGSAQVPGQNQPGFDYVLNGLYNDSGLSGSLPH
[3]
  average increase in fruit weight relative to control: 5%

B4: SEQ ID NO: 731: callose-degrading β-1,3-endoglucanase from barley (Hordeum vulgare) (protein)
chain: GVCYGVIGNNLPSRSDVVQLYRSKGINGMRIYFADGQALSALRNSGIGLILDIGNDQLANIAASTSNAASWVQNNVRPYYPAVNIKYIAAGNEVQGGATQSILPAMRNLNAALSAAGLGAIKVSTSIRFDEVANSFPPSAGVFKNAYMTDVARLLASTGAPLLANVYPYFAYRDNPGSISLNYATFQPGTTVRDQNNGLTYTSLFDAMVDAVYAALEKAGAPAVKVVVSESGWPSAGGFAASAGNARTYNQGLINHVGGGTPKKREALETYIFAMFNENQKTGDATERSFGLFNPDKSPAYNIQF
modifications: Hordeum vulgare
[4]; 'Valencia' trees, trunk injection
  increased yield compared to the untreated control: 14.5 kg per tree
[4]; 'Valencia', combined average of 2 sites (Table 56)
  yield, average relative to control: 124%
[5]; harvested 20 months post-treatment
  increased yield compared to the untreated control: 4.1 kg per tree
[6]
  fruit size and ^oBrixc to Citric Acid ratio (Brix:CA) relative to the untreated control: increased

B5: β-1,3-Endoglucanase from Barley (SEQ ID NO: 731) (protein)
chain: GVCYGVIGNNLPSRSDVVQLYRSKGINGMRIYFADGQALSALRNSGIGLILDIGNDQLANIAASTSNAASWVQNNVRPYYPAVNIKYIAAGNEVQGGATQSILPAMRNLNAALSAAGLGAIKVSTSIRFDEVANSFPPSAGVFKNAYMTDVARLLASTGAPLLANVYPYFAYRDNPGSISLNYATFQPGTTVRDQNNGLTYTSLFDAMVDAVYAALEKAGAPAVKVVVSESGWPSAGGFAASAGNARTYNQGLINHVGGGTPKKREALETYIFAMFNENQKTGDATERSFGLFNPDKSPAYNIQF
modifications: Hordeum vulgare
[5]; harvested 20 months post-treatment, Bt.4Q7Flg22 0.33 mg/tree, endoglucanase 2600 U/tree, mixture 660 U + 660 U + 0.27 mg/tree
  Average Yield (kg per tree): 38.7 kg per tree
[5]; untreated = 34.6
  Average Yield (kg per tree) Relative to Untreated: (112%)

B6: B-1,3-Endoglucanase from Barley (SEQ ID NO: 731) (protein)
chain: GVCYGVIGNNLPSRSDVVQLYRSKGINGMRIYFADGQALSALRNSGIGLILDIGNDQLANIAASTSNAASWVQNNVRPYYPAVNIKYIAAGNEVQGGATQSILPAMRNLNAALSAAGLGAIKVSTSIRFDEVANSFPPSAGVFKNAYMTDVARLLASTGAPLLANVYPYFAYRDNPGSISLNYATFQPGTTVRDQNNGLTYTSLFDAMVDAVYAALEKAGAPAVKVVVSESGWPSAGGFAASAGNARTYNQGLINHVGGGTPKKREALETYIFAMFNENQKTGDATERSFGLFNPDKSPAYNIQF
modifications: Hordeum vulgare
[4]; [8]
  Average Yield (Relative to Untreated): (136%)
  Average Yield (kg per tree): 54.8 kg per tree
[5]
  Average Yield (Relative to Untreated): (112%)
  Average Yield (kg per tree): 38.7 kg per tree
[6]
  Average Fruit Diameter (Relative to Untreated): (104%)
  Average Fruit Diameter (mm): 62.76 mm
  Brix:CA Ratio: 12.01
  Brix:CA Ratio (Relative to Untreated): (+0.76)
[7]
  Average Yield (Relative to Untreated), Average of 2 sites: (124%)
